Data from the supplement of paper PMC9112550, “Optimization of the antimicrobial peptide Bac7 by deep mutational scanning” (BMC Biology, 2022).

System: Escherichia coli TOP10
Assay: shrunken log2 fold change of peptide-encoding DNA abundance (4.5 h post-induction vs induction); higher = less antimicrobial activity (less host growth inhibition)
Conditions: time post-induction: 4.5 h; library: site-saturation at positions 5, 18, 19, 20
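Further: peptides expressed intracellularly from a pBAD plasmid library in pooled LB shake-flask culture, induced with 0.3% L-arabinose, DNA abundance read by NGS, three biological replicates, DESeq2 with apeglm shrinkage.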

## RRIRRRPPRLPRPRPRPNGQPRP
  shrunken log2 fold change: -0.00184

## RRIRWRPPRLPRPRPRPTKAPRP
  shrunken log2 fold change: 0.122

## RRIRVRPPRLPRPRPRPNAVPRP
  shrunken log2 fold change: -0.223

## RRIRGRPPRLPRPRPRPHHQPRP
  shrunken log2 fold change: -0.185

## RRIRVRPPRLPRPRPRPCSKPRP
  shrunken log2 fold change: -0.0775

## RRIRQRPPRLPRPRPRPIWAPRP
  shrunken log2 fold change: -0.0792

## RRIRGRPPRLPRPRPRPSANPRP
  shrunken log2 fold change: 0.858

## RRIRDRPPRLPRPRPRPDREPRP
  shrunken log2 fold change: -0.0481

## RRIRHRPPRLPRPRPRPMSKPRP
  shrunken log2 fold change: -0.203

## RRIRGRPPRLPRPRPRPHKVPRP
  shrunken log2 fold change: 0.184

## RRIRGRPPRLPRPRPRPPGTPRP
  shrunken log2 fold change: 0.982

## RRIRDRPPRLPRPRPRPPPGPRP
  shrunken log2 fold change: 0.774

## RRIRSRPPRLPRPRPRPGEYPRP
  shrunken log2 fold change: -0.275

## RRIRKRPPRLPRPRPRPKIAPRP
  shrunken log2 fold change: 0.35

## RRIRCRPPRLPRPRPRPECIPRP
  shrunken log2 fold change: 0.0623

## RRIRNRPPRLPRPRPRPHHWPRP
  shrunken log2 fold change: -0.0959

## RRIRQRPPRLPRPRPRPEMKPRP
  shrunken log2 fold change: -0.0789

## RRIRSRPPRLPRPRPRPTYKPRP
  shrunken log2 fold change: -0.495

## RRIRMRPPRLPRPRPRPFCNPRP
  shrunken log2 fold change: -0.148

## RRIRWRPPRLPRPRPRPRQVPRP
  shrunken log2 fold change: 0.16

## RRIRCRPPRLPRPRPRPACWPRP
  shrunken log2 fold change: 0.219

## RRIRTRPPRLPRPRPRPGQFPRP
  shrunken log2 fold change: -0.182

## RRIRVRPPRLPRPRPRPIWKPRP
  shrunken log2 fold change: -0.168

## RRIRDRPPRLPRPRPRPPQWPRP
  shrunken log2 fold change: 0.568

## RRIRCRPPRLPRPRPRPDGKPRP
  shrunken log2 fold change: -0.0306

## RRIRLRPPRLPRPRPRPHKSPRP
  shrunken log2 fold change: -0.399

## RRIRNRPPRLPRPRPRPRIIPRP
  shrunken log2 fold change: -0.425

## RRIRKRPPRLPRPRPRPTFVPRP
  shrunken log2 fold change: 0.362

## RRIRQRPPRLPRPRPRPHMNPRP
  shrunken log2 fold change: -0.76

## RRIRERPPRLPRPRPRPFFWPRP
  shrunken log2 fold change: 0.138

## RRIRPRPPRLPRPRPRPNIRPRP
  shrunken log2 fold change: -0.743

## RRIRMRPPRLPRPRPRPQLSPRP
  shrunken log2 fold change: -0.102

## RRIRNRPPRLPRPRPRPSRRPRP
  shrunken log2 fold change: 0.27

## RRIRIRPPRLPRPRPRPKGDPRP
  shrunken log2 fold change: 0.424

## RRIRKRPPRLPRPRPRPPNCPRP
  shrunken log2 fold change: 0.0388

## RRIRTRPPRLPRPRPRPFGQPRP
  shrunken log2 fold change: -0.0675

## RRIRARPPRLPRPRPRPHPDPRP
  shrunken log2 fold change: 0.395

## RRIRHRPPRLPRPRPRPPISPRP
  shrunken log2 fold change: -0.378

## RRIRHRPPRLPRPRPRPRWFPRP
  shrunken log2 fold change: 0.161

## RRIRGRPPRLPRPRPRPKHEPRP
  shrunken log2 fold change: 0.679

## RRIRYRPPRLPRPRPRPMQTPRP
  shrunken log2 fold change: -0.0135

## RRIRPRPPRLPRPRPRPHMIPRP
  shrunken log2 fold change: -0.98

## RRIRLRPPRLPRPRPRPSHIPRP
  shrunken log2 fold change: -0.877

## RRIRKRPPRLPRPRPRPIIAPRP
  shrunken log2 fold change: -0.0395

## RRIRQRPPRLPRPRPRPVFIPRP
  shrunken log2 fold change: -0.288

## RRIRMRPPRLPRPRPRPWEVPRP
  shrunken log2 fold change: -0.00931

## RRIRIRPPRLPRPRPRPLEVPRP
  shrunken log2 fold change: -0.0958

## RRIRCRPPRLPRPRPRPREDPRP
  shrunken log2 fold change: 0.0389

## RRIRYRPPRLPRPRPRPWMHPRP
  shrunken log2 fold change: -0.519

## RRIRYRPPRLPRPRPRPDPFPRP
  shrunken log2 fold change: -0.206

## RRIRFRPPRLPRPRPRPGPYPRP
  shrunken log2 fold change: -0.0125

## RRIRGRPPRLPRPRPRPCIEPRP
  shrunken log2 fold change: 0.0449

## RRIRYRPPRLPRPRPRPARVPRP
  shrunken log2 fold change: -0.0653

## RRIRSRPPRLPRPRPRPWFQPRP
  shrunken log2 fold change: -0.246

## RRIRPRPPRLPRPRPRPDAGPRP
  shrunken log2 fold change: 0.442

## RRIRERPPRLPRPRPRPQQFPRP
  shrunken log2 fold change: -0.0731

## RRIRGRPPRLPRPRPRPISMPRP
  shrunken log2 fold change: -0.0173

## RRIRLRPPRLPRPRPRPWGPPRP
  shrunken log2 fold change: -0.24

## RRIRRRPPRLPRPRPRPQVMPRP
  shrunken log2 fold change: 0.0874

## RRIRGRPPRLPRPRPRPECIPRP
  shrunken log2 fold change: 1.67

## RRIRRRPPRLPRPRPRPSAAPRP
  shrunken log2 fold change: 1.13

## RRIRARPPRLPRPRPRPLKWPRP
  shrunken log2 fold change: 0.218

## RRIRIRPPRLPRPRPRPRTRPRP
  shrunken log2 fold change: 0.0709

## RRIRERPPRLPRPRPRPEVKPRP
  shrunken log2 fold change: -0.0524

## RRIRERPPRLPRPRPRPNFNPRP
  shrunken log2 fold change: -0.376

## RRIRHRPPRLPRPRPRPQAYPRP
  shrunken log2 fold change: -0.451

## RRIRQRPPRLPRPRPRPGFDPRP
  shrunken log2 fold change: 2.69

## RRIRPRPPRLPRPRPRPRLDPRP
  shrunken log2 fold change: 0.0787

## RRIRCRPPRLPRPRPRPVKGPRP
  shrunken log2 fold change: -0.261

## RRIRRRPPRLPRPRPRPQMIPRP
  shrunken log2 fold change: -0.0521

## RRIRARPPRLPRPRPRPVYWPRP
  shrunken log2 fold change: 0.141

## RRIRSRPPRLPRPRPRPVMCPRP
  shrunken log2 fold change: -0.173

## RRIRGRPPRLPRPRPRPCIHPRP
  shrunken log2 fold change: 0.00637

## RRIRLRPPRLPRPRPRPMPHPRP
  shrunken log2 fold change: 0.0155

## RRIRYRPPRLPRPRPRPILAPRP
  shrunken log2 fold change: -0.353

## RRIRGRPPRLPRPRPRPRQVPRP
  shrunken log2 fold change: 0.585

## RRIRPRPPRLPRPRPRPRYHPRP
  shrunken log2 fold change: -0.224

## RRIRGRPPRLPRPRPRPEWNPRP
  shrunken log2 fold change: 1.71

## RRIRARPPRLPRPRPRPAYTPRP
  shrunken log2 fold change: -0.0472

## RRIRPRPPRLPRPRPRPHYTPRP
  shrunken log2 fold change: -0.516

## RRIRYRPPRLPRPRPRPPVHPRP
  shrunken log2 fold change: -0.0526

## RRIRCRPPRLPRPRPRPYFKPRP
  shrunken log2 fold change: -0.931

## RRIRTRPPRLPRPRPRPTNDPRP
  shrunken log2 fold change: -0.547

## RRIRNRPPRLPRPRPRPKGHPRP
  shrunken log2 fold change: -0.104

## RRIRQRPPRLPRPRPRPCMPPRP
  shrunken log2 fold change: -0.27

## RRIRCRPPRLPRPRPRPALAPRP
  shrunken log2 fold change: 0.475

## RRIRLRPPRLPRPRPRPGFAPRP
  shrunken log2 fold change: 0.36

## RRIRIRPPRLPRPRPRPERWPRP
  shrunken log2 fold change: 1.8

## RRIRTRPPRLPRPRPRPKGMPRP
  shrunken log2 fold change: 0.138

## RRIRDRPPRLPRPRPRPNPEPRP
  shrunken log2 fold change: 0.0935

## RRIRCRPPRLPRPRPRPHRMPRP
  shrunken log2 fold change: -0.401

## RRIRLRPPRLPRPRPRPLCTPRP
  shrunken log2 fold change: 0.0663

## RRIRSRPPRLPRPRPRPQHDPRP
  shrunken log2 fold change: -0.227

## RRIRSRPPRLPRPRPRPMVLPRP
  shrunken log2 fold change: 0.114

## RRIRGRPPRLPRPRPRPKMLPRP
  shrunken log2 fold change: 0.509

## RRIRPRPPRLPRPRPRPWRWPRP
  shrunken log2 fold change: 0.915

## RRIRMRPPRLPRPRPRPWWEPRP
  shrunken log2 fold change: -0.425

## RRIRSRPPRLPRPRPRPPHWPRP
  shrunken log2 fold change: 0.5

## RRIRARPPRLPRPRPRPMGIPRP
  shrunken log2 fold change: -0.00146

## RRIRFRPPRLPRPRPRPDVNPRP
  shrunken log2 fold change: 0.00585

## RRIRWRPPRLPRPRPRPIVRPRP
  shrunken log2 fold change: 0.326

## RRIRIRPPRLPRPRPRPCPLPRP
  shrunken log2 fold change: -0.751

## RRIRHRPPRLPRPRPRPRKFPRP
  shrunken log2 fold change: 0.15

## RRIRRRPPRLPRPRPRPLCGPRP
  shrunken log2 fold change: 0.0348

## RRIRNRPPRLPRPRPRPLRDPRP
  shrunken log2 fold change: 0.521

## RRIRSRPPRLPRPRPRPHHLPRP
  shrunken log2 fold change: -0.903

## RRIRNRPPRLPRPRPRPENWPRP
  shrunken log2 fold change: 0.0185

## RRIRSRPPRLPRPRPRPVHQPRP
  shrunken log2 fold change: 0.0888

## RRIRNRPPRLPRPRPRPFPPPRP
  shrunken log2 fold change: -0.32

## RRIRYRPPRLPRPRPRPHYLPRP
  shrunken log2 fold change: -0.285

## RRIRERPPRLPRPRPRPRKLPRP
  shrunken log2 fold change: -0.0356

## RRIRFRPPRLPRPRPRPARQPRP
  shrunken log2 fold change: 0.379

## RRIRQRPPRLPRPRPRPYFWPRP
  shrunken log2 fold change: -0.101

## RRIRCRPPRLPRPRPRPCPSPRP
  shrunken log2 fold change: -0.0705

## RRIRPRPPRLPRPRPRPEFCPRP
  shrunken log2 fold change: 0.18

## RRIRMRPPRLPRPRPRPWEHPRP
  shrunken log2 fold change: 0.0244

## RRIRHRPPRLPRPRPRPDEYPRP
  shrunken log2 fold change: -0.00149

## RRIRCRPPRLPRPRPRPSIEPRP
  shrunken log2 fold change: -0.123

## RRIRFRPPRLPRPRPRPSWNPRP
  shrunken log2 fold change: -0.575

## RRIRTRPPRLPRPRPRPGYNPRP
  shrunken log2 fold change: -0.957

## RRIRDRPPRLPRPRPRPMNCPRP
  shrunken log2 fold change: -0.00373

## RRIRNRPPRLPRPRPRPNLIPRP
  shrunken log2 fold change: -0.369

## RRIRTRPPRLPRPRPRPLYCPRP
  shrunken log2 fold change: -0.715

## RRIRYRPPRLPRPRPRPLGKPRP
  shrunken log2 fold change: -0.192

## RRIRERPPRLPRPRPRPYYLPRP
  shrunken log2 fold change: -0.827
